Consider one molecule from patent US20220162327A1, “ANTI-CCR5 AGENTS AND METHODS OF TREATMENT THAT BLOCK CANCER METASTASIS OR ENHANCE CELL DEATH INDUCED BY DNA DAMAGING CHEMOTHERAPY” (CytoDyn Inc., priority 2019, published 2022).

“Also recorded” adds a separate entry of the source.

In data set [1] the test system is MDA-MB-231 cells. Kind of data set: 3D-matrigel invasion assay, CCL5 as chemoattractant. It is filed as cell-based, human. The source says: FIG. 3A, FIG. 3B, FIG. 3C, and FIG. 3D. […] The ability of breast cancer cells to invade extra-cellular matrix is […] an important step in tumor metastasis (Zetter, 1990). To test the ability of PRO140 to block 3D-matrigel invasion assay, MDA-MB-231 cells were used. CCL5 was used as chemoattractant to induce invasion. The small molecule inhibitor of CCR5, vicriviroc, was used as a form of positive control.

For data set [2] the following is noted: human, in vivo; cited from earlier work.
Data set [3] has as its system MDA-MB-231 cells. Briefly: MTT assay, leronlimab combined with doxorubicin. The data set is classed as cell-based, human. Particulars: 10 mg/ml leronlimab with different dose of doxorubicin, 3 days. Here is the method: FIG. 5A and FIG. 5B. […] The MTT assay was used to determine the relative cell number (FIG. 5A). The cells treated with maraviroc ([…]) combining with different dose of doxorubicin were used as positive control (FIG. 5B). Data are shown as mean±SEM for N=8.

For data set [4], the system named is CCR5+ metastatic Triple Negative Breast Cancer. Briefly: Phase Ib/II study, tumor imaging. It is filed as in vivo, human. The text has this: (§1) The primary objective of Phase 1b is to determine the safety, tolerability and maximum tolerate dose (MTD) of PRO 140 in patients with TNBC, when combined with carboplatin to define a recommended Phase II dose of the combination. The primary objective of phase 2b is to evaluate the impact on progression-free survival (PFS) of the combination PRO 140 and carboplatin in patients with CCR5+ TNBC previously treated with anthracyclines and taxanes in neoadjuvant and adjuvant setting.
The baseline target lesion was identified in the right upper lung at the size of 25 mm. The lesion was described as pleural based, major fissure, soft tissue density nodule in the right hilum.
(§2) Each treatment cycle consisted of 21 days. […] This treatment regimen was used for all subjects enrolled in the mTNBC study, unless otherwise indicated.
Scans were taken at the end of every two cycles (every 6 weeks). The subject had Scan 1 after six weeks, a Scan 2 after 12 weeks, and Scan 3 after 18 weeks (Table 4).

A short description of data set [5]: Phase Ib/II study, safety. The data set is classed as in vivo. Particulars: Subject 706-001, at Cycle 6 Day 1 visit, weekly leronlimab and carboplatin every three weeks.
From the text: as §1, §2

Setting [6] is: Subject 706-001, scan 3, with carboplatin.
[7] abbreviates: Subject 706-001, with carboplatin.

B1: leronlimab: humanized monoclonal antibody to CCR5; humanized version of the murine mAb PA14 (antibody, chains of the INN, looked up, V domains shown)
VH: EVQLVESGGGLVKPGGSLRLSCAASGYTFSNYWIGWVRQAPGKGLEWIGDIYPGGNYIRNNEKFKDKTTLSADTSKNTAYLQMNSLKTEDTAVYYCGSSFGSNYVFAWFTYWGQGTLVTVSS
VL: DIVMTQSPLSLPVTPGEPASISCRSSQRLLSSYGHTYLHWYLQKPGQSPQLLIYEVSNRFSGVPDRFSGSGSGTDFTLKISRVEAEDVGVYYCSQSTHVPLTFGQGTKVEIK
As for B1, the “effect on MDA-MB-231 cell invasion” value in the data set on MDA-MB-231 cells [1] (175 µg/ml) is on record as “can effectively block MDA-MB-231 cell invasion”. Besides, in the data set on MDA-MB-231 cells [1] (350 µg/ml), the “effect on MDA-MB-231 cell invasion” value is “can effectively block MDA-MB-231 cell invasion”. In addition, the “effect on CCL5-induced cell invasion” value in the data set with MDA-MB-231 cells [1] (vicriviroc as positive control) is on record as “reduced CCL5-induced MDA-MB-231 breast cancer cell invasion with similar efficacy as vicriviroc; also recorded: blocked 3D matrigel invasion”. In addition, the adverse events entry in data set [2] is “without significant adverse events reported”. In addition, in the data set with MDA-MB-231 cells [3], the “cell death induced by doxorubicin” value is on record as “augmented cell killing by DNA damage inducing agents including Doxorubicin; also recorded: enhances the cell death induced by doxorubicin”. Besides, in data set [4] (setting [6]), the “decrease in size of target lesion” value was determined as 20% and the new lung nodules entry is given as “no new lung nodules found”. For the same molecule, in data set [4] (setting [7]), the “decrease in size of target lesion (as measured by tumor volume)” value is listed as “greater than 20%”; the “new lymphadenopathy or metastatic disease on diagnostic CT chest, abdomen and pelvis” value is “No new lymphadenopathy or metastatic disease reported”; the “right hilar lymph node” value is “resolved”. For the same molecule, the “maximum standardized uptake values (SUVs) of right lung metastasis” value in data set [4] (Subject 706-001, with carboplatin, previously 15.3) was determined as 6.8. Further, the serious adverse events entry in data set [5] is listed as “no serious adverse events had been reported”.
